From article PMC5153698

Target: T1, human chemokine receptor CXCR4, C-terminally tagged with Rluc8 or mVenus (human), P61073
T1 chain: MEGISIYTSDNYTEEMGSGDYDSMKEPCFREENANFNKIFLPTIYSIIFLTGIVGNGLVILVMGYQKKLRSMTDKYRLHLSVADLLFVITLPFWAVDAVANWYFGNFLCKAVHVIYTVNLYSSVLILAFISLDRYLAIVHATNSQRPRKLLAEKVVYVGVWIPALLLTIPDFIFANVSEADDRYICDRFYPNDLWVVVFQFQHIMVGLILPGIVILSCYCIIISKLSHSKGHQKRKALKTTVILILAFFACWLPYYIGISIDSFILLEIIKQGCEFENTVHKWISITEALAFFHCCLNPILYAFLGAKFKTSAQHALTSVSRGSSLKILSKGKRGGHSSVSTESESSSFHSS
Assay: FRET or BRET
Conditions: remark: other sources report otherwise

B1: human chemokine receptor CXCR4, C-terminally tagged with Rluc8 or mVenus, P61073 1-352 (receptor)
chain: MEGISIYTSDNYTEEMGSGDYDSMKEPCFREENANFNKIFLPTIYSIIFLTGIVGNGLVILVMGYQKKLRSMTDKYRLHLSVADLLFVITLPFWAVDAVANWYFGNFLCKAVHVIYTVNLYSSVLILAFISLDRYLAIVHATNSQRPRKLLAEKVVYVGVWIPALLLTIPDFIFANVSEADDRYICDRFYPNDLWVVVFQFQHIMVGLILPGIVILSCYCIIISKLSHSKGHQKRKALKTTVILILAFFACWLPYYIGISIDSFILLEIIKQGCEFENTVHKWISITEALAFFHCCLNPILYAFLGAKFKTSAQHALTSVSRGSSLKILSKGKRGGHSSVSTESESSSFHSS
- BRET50: 0.11
